± gives the uncertainty stated by the source.
B1: POU domain, class 3, transcription factor 1, residues 247 to 324; numbered along this chain, Q03052 (parent)
chain: EDAPSSDDLEQFAKQFKQRRIKLGFTQADVGLALGTLYGNVFSQTTICRFEALQLSFKNMCKLKPLLNKWLEETDSSS

Variants of: B1
Assay: abundance fitness (aPCA) (normalised: wild type 0, dead -1); higher = more abundant; growth selection in yeast, the domain comes from the species named
Details: Homo sapiens

Row | Variant | abundance fitness
1 | EDAPSSDDLEQFAKQFKQRRIDLGFTQADVGLALGTLYGNVFSQTTICRFEALQLSFKNMCKLKPLLNKWLEETDSSS [K22D] | 0.038 ± 0.085
2 | EDAPSSDDLEQFAKQFKQRRICLGFTQADVGLALGTLYGNVFSQTTICRFEALQLSFKNMCKLKPLLNKWLEETDSSS [K22C] | -0.347 ± 0.13
3 | EDAPSSDDLEQFAKQFKQRRIALGFTQADVGLALGTLYGNVFSQTTICRFEALQLSFKNMCKLKPLLNKWLEETDSSS [K22A] | 0.058 ± 0.057
4 | EDAPSSDDLEQFAKQFKQRRIFLGFTQADVGLALGTLYGNVFSQTTICRFEALQLSFKNMCKLKPLLNKWLEETDSSS [K22F] | -0.32 ± 0.19
5 | EDAPSSDDLEQFAKQFKQRRCKLGFTQADVGLALGTLYGNVFSQTTICRFEALQLSFKNMCKLKPLLNKWLEETDSSS [I21C] | -0.521 ± 0.16
6 | EDAPSSDDLEQFAKQFKQRRRKLGFTQADVGLALGTLYGNVFSQTTICRFEALQLSFKNMCKLKPLLNKWLEETDSSS [I21R] | -0.338 ± 0.061
7 | EDAPSSDDLEQFAKQFKQRRMKLGFTQADVGLALGTLYGNVFSQTTICRFEALQLSFKNMCKLKPLLNKWLEETDSSS [I21M] | -0.236 ± 0.082
8 | EDAPSSDDLEQFAKQFKQRRGKLGFTQADVGLALGTLYGNVFSQTTICRFEALQLSFKNMCKLKPLLNKWLEETDSSS [I21G] | -0.689 ± 0.085
9 | EDAPSSDDLEQFAKQFKQRRLKLGFTQADVGLALGTLYGNVFSQTTICRFEALQLSFKNMCKLKPLLNKWLEETDSSS [I21L] | -0.184 ± 0.061
10 | EDAPSSDDLEQFAKQFKQRRDKLGFTQADVGLALGTLYGNVFSQTTICRFEALQLSFKNMCKLKPLLNKWLEETDSSS [I21D] | -0.527 ± 0.21
11 | EDAPSSDDLEQFAKQFKQRRPKLGFTQADVGLALGTLYGNVFSQTTICRFEALQLSFKNMCKLKPLLNKWLEETDSSS [I21P] | -1.18 ± 0.3
12 | EDAPSSDDLEQFAKQFKQRRWKLGFTQADVGLALGTLYGNVFSQTTICRFEALQLSFKNMCKLKPLLNKWLEETDSSS [I21W] | -0.544 ± 0.12
13 | EDAPSSDDLEQFAKQFKQRRYKLGFTQADVGLALGTLYGNVFSQTTICRFEALQLSFKNMCKLKPLLNKWLEETDSSS [I21Y] | 0.147 ± 0.17
14 | EDAPSSDDLEQFAKQFKQRRHKLGFTQADVGLALGTLYGNVFSQTTICRFEALQLSFKNMCKLKPLLNKWLEETDSSS [I21H] | -0.64 ± 0.29
15 | EDAPSSDDLEQFAKQFKQRRQKLGFTQADVGLALGTLYGNVFSQTTICRFEALQLSFKNMCKLKPLLNKWLEETDSSS [I21Q] | -0.178 ± 0.095
16 | EDAPSSDDLEQFAKQFKQRRKKLGFTQADVGLALGTLYGNVFSQTTICRFEALQLSFKNMCKLKPLLNKWLEETDSSS [I21K] | -0.349 ± 0.12
17 | EDAPSSDDLEQFAKQFKQRREKLGFTQADVGLALGTLYGNVFSQTTICRFEALQLSFKNMCKLKPLLNKWLEETDSSS [I21E] | 0.005 ± 0.073
18 | EDAPSSDDLEQFAKQFKQRRAKLGFTQADVGLALGTLYGNVFSQTTICRFEALQLSFKNMCKLKPLLNKWLEETDSSS [I21A] | -0.391 ± 0.089

Row | Variant | abundance fitness
19 | EDAPSSDDLEQFAKQFKQRRFKLGFTQADVGLALGTLYGNVFSQTTICRFEALQLSFKNMCKLKPLLNKWLEETDSSS [I21F] | -0.827 ± 0.41
20 | EDAPSSDDLEQFAKQFKQRTIKLGFTQADVGLALGTLYGNVFSQTTICRFEALQLSFKNMCKLKPLLNKWLEETDSSS [R20T] | -0.815 ± 0.21
21 | EDAPSSDDLEQFAKQFKQRAIKLGFTQADVGLALGTLYGNVFSQTTICRFEALQLSFKNMCKLKPLLNKWLEETDSSS [R20A] | -0.653 ± 0.13
22 | EDAPSSDDLEQFAKQFKQRVIKLGFTQADVGLALGTLYGNVFSQTTICRFEALQLSFKNMCKLKPLLNKWLEETDSSS [R20V] | -0.636 ± 0.11
23 | EDAPSSDDLEQFAKQFKQRKIKLGFTQADVGLALGTLYGNVFSQTTICRFEALQLSFKNMCKLKPLLNKWLEETDSSS [R20K] | -1.11 ± 0.43
24 | EDAPSSDDLEQFAKQFKQRFIKLGFTQADVGLALGTLYGNVFSQTTICRFEALQLSFKNMCKLKPLLNKWLEETDSSS [R20F] | -0.353 ± 0.3
25 | EDAPSSDDLEQFAKQFKQRSIKLGFTQADVGLALGTLYGNVFSQTTICRFEALQLSFKNMCKLKPLLNKWLEETDSSS [R20S] | -0.813 ± 0.17
26 | EDAPSSDDLEQFAKQFKQRHIKLGFTQADVGLALGTLYGNVFSQTTICRFEALQLSFKNMCKLKPLLNKWLEETDSSS [R20H] | -0.508 ± 0.32
27 | EDAPSSDDLEQFAKQFKQRDIKLGFTQADVGLALGTLYGNVFSQTTICRFEALQLSFKNMCKLKPLLNKWLEETDSSS [R20D] | -0.645 ± 0.46
28 | EDAPSSDDLEQFAKQFKQRWIKLGFTQADVGLALGTLYGNVFSQTTICRFEALQLSFKNMCKLKPLLNKWLEETDSSS [R20W] | -0.973 ± 0.24
29 | EDAPSSDDLEQFAKQFKQRIIKLGFTQADVGLALGTLYGNVFSQTTICRFEALQLSFKNMCKLKPLLNKWLEETDSSS [R20I] | -0.971 ± 0.44
30 | EDAPSSDDLEQFAKQFKQREIKLGFTQADVGLALGTLYGNVFSQTTICRFEALQLSFKNMCKLKPLLNKWLEETDSSS [R20E] | -0.845 ± 0.19
31 | EDAPSSDDLEQFAKQFKQRPIKLGFTQADVGLALGTLYGNVFSQTTICRFEALQLSFKNMCKLKPLLNKWLEETDSSS [R20P] | -0.744 ± 0.24
32 | EDAPSSDDLEQFAKQFKQRLIKLGFTQADVGLALGTLYGNVFSQTTICRFEALQLSFKNMCKLKPLLNKWLEETDSSS [R20L] | -0.637 ± 0.11
33 | EDAPSSDDLEQFAKQFKQRQIKLGFTQADVGLALGTLYGNVFSQTTICRFEALQLSFKNMCKLKPLLNKWLEETDSSS [R20Q] | -0.733 ± 0.22
34 | EDAPSSDDLEQFAKQFKQRMIKLGFTQADVGLALGTLYGNVFSQTTICRFEALQLSFKNMCKLKPLLNKWLEETDSSS [R20M] | -0.915 ± 0.27
35 | EDAPSSDDLEQFAKQFKQRGIKLGFTQADVGLALGTLYGNVFSQTTICRFEALQLSFKNMCKLKPLLNKWLEETDSSS [R20G] | -0.896 ± 0.13

From the Human Domainome abundance scans (Beltran et al. 2025)
